Test results taken from patent publication US20030235860A1, “Interactions between AR, ER, TR2, and TR4” (priority 1999, published 2003).

T1: PR (Homo sapiens, UniProt P06401)
T1 construct: expressed in transfected cells; host or cells: H1299 (pSG5-PR)
T1 sequence (P06401 1-933): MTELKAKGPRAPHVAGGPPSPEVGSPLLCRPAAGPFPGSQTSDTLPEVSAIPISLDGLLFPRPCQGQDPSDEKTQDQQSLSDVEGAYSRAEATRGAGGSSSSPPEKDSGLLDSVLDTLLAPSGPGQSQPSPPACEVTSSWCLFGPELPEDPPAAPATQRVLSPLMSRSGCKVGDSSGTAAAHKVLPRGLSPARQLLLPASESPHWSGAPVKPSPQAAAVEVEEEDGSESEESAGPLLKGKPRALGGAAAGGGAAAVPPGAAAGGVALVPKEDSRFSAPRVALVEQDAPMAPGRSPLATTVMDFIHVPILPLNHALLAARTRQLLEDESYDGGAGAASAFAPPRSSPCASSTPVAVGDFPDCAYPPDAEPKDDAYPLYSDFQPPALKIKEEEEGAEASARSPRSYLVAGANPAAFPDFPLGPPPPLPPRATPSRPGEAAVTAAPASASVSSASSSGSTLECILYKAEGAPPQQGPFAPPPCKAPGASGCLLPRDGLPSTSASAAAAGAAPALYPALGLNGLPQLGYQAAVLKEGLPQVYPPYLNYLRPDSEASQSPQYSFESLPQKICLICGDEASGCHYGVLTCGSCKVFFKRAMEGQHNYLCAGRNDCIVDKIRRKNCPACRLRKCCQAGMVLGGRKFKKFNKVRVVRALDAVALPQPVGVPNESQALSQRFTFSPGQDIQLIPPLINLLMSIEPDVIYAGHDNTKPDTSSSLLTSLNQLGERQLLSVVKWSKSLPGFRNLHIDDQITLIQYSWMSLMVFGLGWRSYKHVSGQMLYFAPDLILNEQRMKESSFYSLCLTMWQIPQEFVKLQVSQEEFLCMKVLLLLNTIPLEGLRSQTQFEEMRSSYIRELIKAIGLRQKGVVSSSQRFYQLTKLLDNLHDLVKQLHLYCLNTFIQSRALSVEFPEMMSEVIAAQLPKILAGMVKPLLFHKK

B1: TR4: human testicular orphan nuclear receptor 4, SEQ ID NO:16; expressed from plasmid or in vitro translated (protein)
chain: MTSPSPRIQIISTDSAVASPQRIQGSEPASGPLSVFTSLNKEKIVTDQQTGQKIQIVTAVDASGSPKQQFILTSPDGAGTGKVILASPETSSAKQLIFTTSDNLVPGRIQIVTDSASVERLLGKTDVQRPQVVEYCVVCGDKASGRHYGAVSCEGCKGFFKRSVRKNLTYSCRSSQDCIINKHHRNRCQFCRLKKCLEMGMKMESVQSERKPFDVQREKPSNCAASTEKIYIRKDLRSPLIATPTFVADKDGARQTGLLDPGMLVNIQQPLIREDGTVLLATDSKAETSQGALGTLANVVTSLANLSESLNNGDTSEIQPEDQSASEITRAFDTLAKALNTTDSSSSPSLADGIDTSGGGSIHVISRDQSTPIIEVEGPLLSDTHVTFKLTMPSPMPEYLNVHYICESASRLLFLSMHRARSIPAFQGLGQDCNTSLVRACWNELFTLGLAQCAQVMSLSTILAAIVNHLQNSIQEDKLSGDRIKQVMEHIWKLQEFCNSMANWDIDGYEYAYLKAIVLFSPDHPGLTSTSQIEKFQEKAQMELQDYVQKTYSEDTYRLARILVRLPALRLMSSNITEELFFTGLIGNVSIDSIIPYILKMETAEYNGQITGVSL
B2: TR2: human testicular orphan nuclear receptor 2, 603 amino acids (protein, UniProt P13056 1-603, looked up)
chain: MATIEEIAHQIIEQQMGEIVTEQQTGQKIQIVTALDHNTQGKQFILTNHDGSTPSKVILARQDSTPGKVFLTTPDAAGVNQLFFTTPDLSAQHLQLLTDNSPDQGPNKVFDLCVVCGDKASGRHYGAVTCEGCKGFFKRSIRKNLVYSCRGSKDCIINKHHRNRCQYCRLQRCIAFGMKQDSVQCERKPIEVSREKSSNCAASTEKIYIRKDLRSPLTATPTFVTDSESTRSTGLLDSGMFMNIHPSGVKTESAVLMTSDKAESCQGDLSTLANVVTSLANLGKTKDLSQNSNEMSMIESLSNDDTSLCEFQEMQTNGDVSRAFDTLAKALNPGESTACQSSVAGMEGSVHLITGDSSINYTEKEGPLLSDSHVAFRLTMPSPMPEYLNVHYIGESASRLLFLSMHWALSIPSFQALGQENSISLVKAYWNELFTLGLAQCWQVMNVATILATFVNCLHNSLQQDKMSTERRKLLMEHIFKLQEFCNSMVKLCIDGYEYAYLKAIVLFSPDHPSLENMEQIEKFQEKAYVEFQDYITKTYPDDTYRLSRLLLRLPALRLMNATITEELFFKGLIGNIRIDSVIPHILKMEPADYNSQIIGHSI
modifications: full-length
notes: human testicular orphan nuclear receptor 2, 603 amino acids

Legend:
PR = target: T1, PR; test: PR-mediated transactivation (MMTV reporter); assay type: cell-based
ERβ = target: T2, ERβ (Mus musculus, UniProt O08537); test: ERβ-mediated transactivation (ERE reporter); assay type: cell-based
T2 construct: expressed in transfected cells; host or cells: HEK293 (TR2 experiment), H1299 (TR4 experiment)
Experimental: (A) TR2 repression of ER-mediated ERE-tk-CAT reporter genes in PC-3, H1299, MCF7, and T47D cells. Cells in 60-mm dishes were co-transfected with […] of ERE-CAT, pSG5-ER, and/or pCMV-TR2 by calcium phosphate precipitation methods. 1 mg of b-galactosidase expression plasmid, pCMV-b-gal, was used as an internal control for transfection efficiency. CAT activity is presented relative to the response to ethanol, which is set as one. (B) MCF7-pBIG and MCF7-TR2 cells were stably transfected with doxycycline-inducible pBIG2i and pBIG2I-FLAG-TR2 plasmids, respectively. Cells were transfected with […] of pCMV-b-gal and, after 16 hr, were treated with or without […] doxycycline. […] FLAG-TR2 induction was monitored by Western blotting using anti-FLAG antibody (M2), shown in the upper panel. […] Relative mRNA expression amounts were normalized by 28S expression and quantitated by ImageQuant V.1.2 (Molecular Dynamics). […] Luciferase activity was analyzed following manufacturer's instructions (Promega). […]
H1299 and MCF-7 cells were maintained in Dulbecco's modified eagle medium (DMEM) containing penicillin (25 units/ml), streptomycin (25 μg/ml), and 10% fetal calf serum (FBS). […] The CAT activity was visualized by Phosphorlmager (Molecular Dynamics) and quantitated by IMAGEQUANT software (Molecular Dynamics). The luciferase activity was determined by the Luminometer (Turner Designs).

T2 sequence (O08537 whole entry): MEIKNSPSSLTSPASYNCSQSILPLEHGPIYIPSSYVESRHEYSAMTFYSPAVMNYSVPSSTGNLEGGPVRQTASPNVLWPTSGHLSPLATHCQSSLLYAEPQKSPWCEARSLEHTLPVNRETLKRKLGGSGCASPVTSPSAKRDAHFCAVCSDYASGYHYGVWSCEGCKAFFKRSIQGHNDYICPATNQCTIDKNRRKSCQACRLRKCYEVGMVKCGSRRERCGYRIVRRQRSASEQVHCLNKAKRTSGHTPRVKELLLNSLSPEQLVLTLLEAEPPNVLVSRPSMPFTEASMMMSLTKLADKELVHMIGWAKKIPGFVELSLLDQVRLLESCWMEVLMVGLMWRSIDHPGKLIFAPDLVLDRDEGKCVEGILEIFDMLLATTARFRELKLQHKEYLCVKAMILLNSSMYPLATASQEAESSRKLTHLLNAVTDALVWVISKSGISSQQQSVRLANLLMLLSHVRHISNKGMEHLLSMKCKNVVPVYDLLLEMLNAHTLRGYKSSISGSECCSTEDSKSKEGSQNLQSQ

Row | Molecule | PR-mediated MMTV-LUC reporter activity (PR; H1299 cells, 10 nM progesterone, increasing TR4) | E2-induced ERE-CAT activity, ERβ (ERβ; H1299 cells, 10 nM E2, increasing TR4 expression plasmid) | PR-mediated transactivation (MMTV-CAT) (PR; H1299 cells, 10^−8 M progesterone, increasing TR2) | PR-mediated transcription (MMTV-CAT) (PR; T47D cells, Example 2) | ERβ-mediated transcription (ERE-Luc) (ERβ; HEK293 cells, TR2)
1 | B1 | failed to suppress | suppression of the E2-induced CAT activity in a dose-dependent manner |  |  | 
2 | B2 |  |  | little effect | marginal effect | suppress
